Experimental data taken from the supplement of paper PMC9732359.
± gives the uncertainty stated by the source.

Assay: protein stability index of a GFP-peptide fusion (yeast GPS) (PSI 1-4); higher = more stable; sorted into four equal gates, so the index is relative within each strain
How it was run: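 Peptides tiling yeast proteins in 17-residue segments were fused downstream of GFP, with Cherry expressed from the same plasmid. As a pooled library in yeast, mid-log cultures grown in leucine-free medium were sorted into four equal gates by GFP/Cherry fluorescence ratio. Gate plasmids were PCR-amplified and Illumina-sequenced, and barcodes linked reads to strains. Each peptide received a protein stability index equal to the sum of each gate's read frequency times its gate number.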

Sequence	protein stability index (doa10∆)	protein stability index (pdr5∆)	protein stability index (san1∆)	protein stability index (ubr1∆)
QLAVKIINKVLDYQETY [YJL039C/NUP192]	1.94 ± 0.11	2.73 ± 0.096	2.51 ± 0.086	
LFKKFNNDFKLSIDKVL [RET1]	1.66 ± 0.12	1.8 ± 0.11	2.15 ± 0.15	2.67 ± 0.093
AQLTLKRCKHFELGGEK [RPL42A]	1.93 ± 0.12	2.46 ± 0.11	2.89 ± 0.069	2.56 ± 0.076
TKIKDAEEDSLLSGEDL [YJL039C/NUP192]	3.35 ± 0.16	3.45 ± 0.086	3.14 ± 0.16	3.38 ± 0.12
LDDLVVLKKKNIQKKQP [RRP6]	1.44 ± 0.079	1.38 ± 0.061	2.08 ± 0.12	2.34 ± 0.14
STTEHINIDDLLYELTA [YJL039C/NUP192]	2.82 ± 0.11	2.61 ± 0.092	2.43 ± 0.099	3.05 ± 0.053
DNDTVVTNDDKSDDDDH [SRB8]		2.88 ± 0.15	3.24 ± 0.26	3.19 ± 0.11
TLVGGGAKITPEMIKRS [RRP43]		3.29 ± 0.29	2.74 ± 0.22	
GDKDTRADIVRNIILEA [ISW2]	2.1 ± 0.1	2.41 ± 0.06	2.09 ± 0.099	2.56 ± 0.11
QQQMANNNGNPGTTSTG [GAL11]	3.13 ± 0.11	3.44 ± 0.065	3.26 ± 0.049	3.31 ± 0.043
NTGLLNKANIQALIHGL [RPN11]	3.02 ± 0.14	2.88 ± 0.15	2.09 ± 0.28	2.67 ± 0.16
ASLGIGLAAMGSANIEV [RPN2]	1.65 ± 0.088	1.76 ± 0.079	1.74 ± 0.091	1.53 ± 0.067
VMSIESLVEVVFYRGMT [FAS1]	1.89 ± 0.1	2.12 ± 0.06	1.39 ± 0.12	2.66 ± 0.097
LKNTMQYLTNFSRFRDQ [RPB4]	3.09 ± 0.12	2.97 ± 0.17	3.1 ± 0.087	3.19 ± 0.074
MSYVVRILSTLDRELLK [RPT3]	2.31 ± 0.098	2.24 ± 0.1	2.55 ± 0.057	2.88 ± 0.094
LNLEQVTLNKYCSGNIY [YJL039C/NUP192]	2.37 ± 0.044	2.16 ± 0.048	2.59 ± 0.052	2.39 ± 0.046
GEHISAIVPGQSISGTL [SWP82]	3.41 ± 0.15	3.05 ± 0.13	2.97 ± 0.17	
FIYGEDGMDAAHIEKQS [RPO21]	3.31 ± 0.069	3.29 ± 0.084	3.38 ± 0.054	3.36 ± 0.043
LISDQLLEFFELVFSKG [YML103C/NUP188]	2.57 ± 0.077	2.71 ± 0.11	3.1 ± 0.066	2.9 ± 0.057
VLIANDVDPIELVVFLP [RPL8A]	2.42 ± 0.24	2.85 ± 0.077	3.13 ± 0.087	3 ± 0.058
HHWLLDKLSGCYAPRPS [RPS4A]	2.21 ± 0.063	1.94 ± 0.062	1.89 ± 0.083	1.42 ± 0.045
IRAGEFDVVLTTFEYII [SNF2]	2.31 ± 0.14	2.56 ± 0.13	2.37 ± 0.11	2.59 ± 0.12
PSKVSKIDSHVVLSFSG [PRE6]	1.71 ± 0.062	1.77 ± 0.058	1.74 ± 0.12	1.87 ± 0.057
ELIQKYLGDGPRLCRQI [RPT2]			2.76 ± 0.2	

Sequence	protein stability index (doa10∆)	protein stability index (pdr5∆)	protein stability index (san1∆)	protein stability index (ubr1∆)
RKDENQFSYVDSSMTTV [AAR2]	2.98 ± 0.041	3.09 ± 0.045	3 ± 0.033	3.06 ± 0.04
SDTSKPAFTFGAQKDNE [YJL041W/NSP1]	3.32 ± 0.094	3.32 ± 0.087	3.36 ± 0.074	3.48 ± 0.059
EIQRTMLELLNQLDGFD [RPT2]	2.83 ± 0.088	2.97 ± 0.12	2.93 ± 0.067	
MEDPPSTVSGELNDNPA [YMR153W/NUP53]	2.45 ± 0.081	2.81 ± 0.054	2.84 ± 0.077	2.83 ± 0.051
ESYNQNDWKLETERLIS [SIN4]	3.4 ± 0.09	3.21 ± 0.14	3.29 ± 0.066	3.15 ± 0.11
DQFQWILRKPGKDCKLQ [RRI2]	2.62 ± 0.19	3.25 ± 0.17	3.26 ± 0.16	3.3 ± 0.16
YDVLHDVFTINPHQKDQ [YML103C/NUP188]		2.15 ± 0.098	2.12 ± 0.13	2.61 ± 0.25
DSTNLSDDAAQFMKRFP [ECM29]	2.65 ± 0.11	2.79 ± 0.073	1.45 ± 0.092	3.06 ± 0.1
NTNLMNGVNVQIDQLNR [GRR1]	2.85 ± 0.052	3.06 ± 0.061	2.88 ± 0.049	2.99 ± 0.05
TPGSVSLSAYNLTDEGY [PRP8]	2.23 ± 0.15	2.5 ± 0.077	2.3 ± 0.094	1.96 ± 0.21
IRTRRAAELLDKRIVIS [DIS3]	1.5 ± 0.11	1.81 ± 0.1	1.51 ± 0.17	1.84 ± 0.1
LKYLSVEEVIKLVRDSF [PRE7]	2.71 ± 0.13	3.27 ± 0.11	2.72 ± 0.12	3.08 ± 0.078
KTESQDVETRVQNLEQT [DPB4]	3.49 ± 0.091	3.32 ± 0.065	3.2 ± 0.047	3.24 ± 0.048
NIVKQNEGIDLDTYRER [SMC2]	3.13 ± 0.13	3.51 ± 0.12	3.24 ± 0.079	3.41 ± 0.086
LIPEDKRDQYLKSASKE [RPL28]		3.1 ± 0.19	1.95 ± 0.18	3.36 ± 0.098
SSQVREHVKELLKYSNE [RPL1A]	1.63 ± 0.077	2.23 ± 0.06	2.47 ± 0.085	2.13 ± 0.047
FGNSSPQLTFTHVANFM [YML103C/NUP188]	2.97 ± 0.096	3.03 ± 0.08	3.04 ± 0.054	2.92 ± 0.052
EDEMMHEEDQKTNIIEK [RPN12]	3.26 ± 0.1	3.09 ± 0.12	2.58 ± 0.15	2.85 ± 0.13
MLWGGASMLGLFVFTEG [QCR10]	1.96 ± 0.14	1.82 ± 0.11	2.43 ± 0.26	3.19 ± 0.2
TNQIFQSRRYNLRRHSD [SIN4]	2.94 ± 0.045	3.18 ± 0.04	3.04 ± 0.045	3.08 ± 0.031
TQAKRIFLQQFLQELLK [SWI1]	2.62 ± 0.072	2.42 ± 0.092	2.43 ± 0.082	2.1 ± 0.064
SEIARTYLLKNDLVKAR [RPN9]	3.29 ± 0.2		3.09 ± 0.12	
IDKLMLSPSDQFAPAFL [SSN2]	1.99 ± 0.068	2.24 ± 0.1	2.1 ± 0.13	2.5 ± 0.09
